Results published in US11419945B2, “Antigen binding proteins” (Glaxo Group Limited, priority 2011, dated 2022).

Columns and labels:
Assay type in all cases: binding
Human in house BCMA = biological target: T1, Human in house BCMA (Homo sapiens, UniProt Q02223); assay: ProteOn analysis of CA8 chimeric and humanised constructs, human in house BCMA; settings: for ka / kd / KD: ProteOn, 25° C.; for ka: in M-1s-1 (unit assumed); for kd: in s-1 (unit assumed); for off rate: Run 2, ProteOn, recombinant human BCMA, no affinity values obtained
T1 construct: CD33 signal peptide (N); TEV site (internal); Fc (C); made in house
Procedure: (§1) The initial screen of CA8 chimeric and humanised variants was carried out on the ProteOn XPR36 (Biorad). The method was as follows; Protein A was immobilised on a GLC chip (Biorad, Cat No: 176-5011) by primary amine coupling, CA8 variants were then captured on this surface and recombinant human BCMA (in house or commercial US Biological, B0410) materials (run 2 only)) passed over at 256, 64, 16, 4, 1 nM with a 0 nM injection (i.e. buffer alone) used to double reference the binding curves, the buffer used is the HBS-EP buffer. 50 mM NaOH was used to regenerate the capture surface. The data was fitted to the 1:1 model using the analysis software inherent to the ProteOn XPR36. Run 1 corresponds to the first screen of humanised CA8 variants (JO to J5 series) and run 2 to the second screen of humanised CA8 variants (J5 to J9 series). Both runs were carried out at 25° C.

Cyno in house BCMA [1] = assay: ProteOn analysis of CA8 chimeric and humanised constructs, cyno in house BCMA; settings: 25° C.
Human commercial BCMA [2] = biological target: T2, Human commercial BCMA (Homo sapiens, UniProt Q02223); assay: ProteOn analysis of CA8 chimeric and humanised constructs, commercial human BCMA; settings: Run 2, commercial human BCMA, 25° C.
T2 construct: purchased US Biological B0410
T2 sequence (Q02223 1-184): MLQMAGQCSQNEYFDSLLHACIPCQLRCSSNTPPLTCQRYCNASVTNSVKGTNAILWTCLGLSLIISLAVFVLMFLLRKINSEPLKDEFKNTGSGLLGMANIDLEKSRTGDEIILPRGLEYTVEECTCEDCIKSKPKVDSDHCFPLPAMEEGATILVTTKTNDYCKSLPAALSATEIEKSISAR
Procedure: as §1

Human commercial BCMA [3] = biological target: T2, Human commercial BCMA; assay: BIAcore analysis of J6M0 and J9M0, human commercial BCMA
Procedure: (§2) Protein A was immobilised on a CMS chip (GE Healthcare, Cat No: BR-1005-30) by primary amine coupling and this surface was then used to capture the antibody molecules. Recombinant human BCMA (US Biological, B0410) was used as analyte at 256 nM, 64 nM, 16 nM, 4 nM and 1 nM. Regeneration of the capture surface was carried out using 50 mM NaOH. All binding curves were double referenced with a buffer injection (i.e. 0 nM) the data was fitted to the using the 1:1 model inherent to T100 evaluation software. The run was carried out at 25° C. and 37° C. for experiment 1 and only 37° C. for experiment 2 using HBS-EP as the running buffer.

Human commercial BCMA [4] = biological target: T2, Human commercial BCMA; assay: BIAcore analysis J7 to J9 series, human commercial BCMA; settings: 37° C.; for ka: in M-1s-1 (unit assumed); for kd: in s-1 (unit assumed)
Procedure: as §2, with “nM) and” for “nM)”, “at” for “at 25° C. and”, “C.,” for “C. for experiment 1 and only 37° C. for experiment 2”

Cyno in house BCMA [5] = assay: BIAcore analysis J7 to J9 series, cyno in house BCMA; settings: 37° C.; for ka: in M-1s-1 (unit assumed); for kd: in s-1 (unit assumed)

Chain of Cyno in house BCMA (as listed by the source): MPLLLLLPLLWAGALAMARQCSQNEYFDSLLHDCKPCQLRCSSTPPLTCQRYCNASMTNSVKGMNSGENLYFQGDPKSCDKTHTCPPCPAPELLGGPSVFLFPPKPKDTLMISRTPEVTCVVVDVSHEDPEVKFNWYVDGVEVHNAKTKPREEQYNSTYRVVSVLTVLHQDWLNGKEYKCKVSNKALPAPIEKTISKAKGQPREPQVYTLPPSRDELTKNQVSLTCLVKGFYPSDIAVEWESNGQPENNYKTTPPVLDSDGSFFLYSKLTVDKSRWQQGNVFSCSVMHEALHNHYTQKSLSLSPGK
T1 sequence (Q02223 with tags, fused parts or gaps limits assumed): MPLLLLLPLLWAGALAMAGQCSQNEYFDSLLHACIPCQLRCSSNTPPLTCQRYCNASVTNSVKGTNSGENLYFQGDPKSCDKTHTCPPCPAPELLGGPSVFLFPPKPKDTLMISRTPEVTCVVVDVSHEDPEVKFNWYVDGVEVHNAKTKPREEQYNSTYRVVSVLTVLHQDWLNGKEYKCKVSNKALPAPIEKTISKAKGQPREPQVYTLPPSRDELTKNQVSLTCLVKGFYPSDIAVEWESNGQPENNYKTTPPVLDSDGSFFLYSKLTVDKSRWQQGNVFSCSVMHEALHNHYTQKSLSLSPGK

## CA8 humanised J6M0
Human in house BCMA; Run 2, Human in house BCMA
  ka: 2.40E+05
  kd: 7.40E−05
Cyno in house BCMA [1]; Run 2, Cyno in house BCMA, in M-1s-1 (unit assumed)
  ka: 5.64E+04
Cyno in house BCMA [1]; Run 2, Cyno in house BCMA, in s-1 (unit assumed)
  kd: 3.18E−04
Human commercial BCMA [2]; in M-1s-1 (unit assumed)
  ka: 6.23E+05
Human commercial BCMA [2]; in s-1 (unit assumed)
  kd: 5.37E−05
Human commercial BCMA [3]; 25° C., Experiment 1, in M-1s-1 (unit assumed)
  ka: 1.01E+06
Human commercial BCMA [3]; 25° C., Experiment 1, in s-1 (unit assumed)
  kd: 1.22E−04
Human commercial BCMA [3]; 37° C., Experiment 1, in M-1s-1 (unit assumed)
  ka: 2.12E+06
Human commercial BCMA [3]; 37° C., Experiment 1, in s-1 (unit assumed)
  kd: 1.48E−03
Human commercial BCMA [3]; 37° C., Experiment 2, in M-1s-1 (unit assumed)
  ka: 3.78E+06
Human commercial BCMA [3]; 37° C., Experiment 2, in s-1 (unit assumed)
  kd: 1.88E−03

B1: CA8 humanised J9M1: humanised CA8 anti-BCMA antibody, VH J9 (SEQ ID NO:29) + VL M1 (SEQ ID NO:33) (antibody, V domains shown)
VH: QVQLVQSGAEVKKPGSSVKVSCKGSGYTFTNYWMHWVRQAPGQGLEWIGATYRGHSDTYYNQKFKGRATLTADTSTSTAYMELSSLRSEDTAVYYCTRGAIYDGYDVLDNWGQGTLVTVSS
VL: DIQMTQSPSSLSASVGDRVTITCSASQDISNYLNWYQQKPGKAPKLLIYYTSNLHSGVPSRFSGSGSGTDYTLTISSLQPEDFATYYCQQYRKLPWTFGQGTKLEIKR
modifications: Humansed antibody sequence
Human commercial BCMA [4]
  ka: 1.96E+07
  kd: 3.50E−04
Human in house BCMA
  off rate: beyond the sensitivity of the assay
Cyno in house BCMA [5]
  ka: 6.77E+05
  kd: 2.99E−04

B2: CA8 humanised J7M1: humanised CA8 anti-BCMA antibody, VH J7 (SEQ ID NO:25) + VL M1 (SEQ ID NO:33) (antibody, V domains shown)
VH: QVQLVQSGAEVKKPGSSVKVSCKASGYTFTNYWMHWVRQAPGQGLEWMGATYRGHSDTYYNQKFKGRVTITADKSTSTAYMELSSLRSEDTAVYYCARGAIYDGYDVLDNWGQGTLVTVSS
VL: DIQMTQSPSSLSASVGDRVTITCSASQDISNYLNWYQQKPGKAPKLLIYYTSNLHSGVPSRFSGSGSGTDYTLTISSLQPEDFATYYCQQYRKLPWTFGQGTKLEIKR
modifications: Humansed antibody sequence
Human commercial BCMA [4]
  ka: 2.35E+06
  kd: 1.31E−04
Human in house BCMA
  off rate: beyond the sensitivity of the assay
Cyno in house BCMA [5]
  ka: 3.70E+05
  kd: 3.91E−04

B3: S307118G03 humanised H2L1: humanised S307118G03, VH H2 (SEQ ID NO:81) + VL L1 (SEQ ID NO:91) (antibody, V domains shown)
VH: QVQLVQSGAEVKKPGSSVKVSCKASGYTFTDYYMKWVRQAPGQGLEWMGEIYPNNGGITYNQKFKGRVTITADKSTSTAYMELSSLRSEDTAVYYCANGYEFVYWGQGTLVTVSS
VL: DIQMTQSPSSLSASVGDRVTITCSASQGISNYLNWYQQKPGKAPKLLIYYTSSLHSGVPSRFSGSGSGTDYTLTISSLQPEDFATYYCQQYSKLPWTFGQGTKLEIKR
modifications: Humansed antibody sequence
Human in house BCMA; Run 1, Human in house BCMA
  ka: 3.38E+05
  kd: 2.15E−03
Cyno in house BCMA [1]; Run 1, Cyno in house BCMA
  KD: No

B4: S307118G03 humanised H2L0: humanised S307118G03, VH H2 (SEQ ID NO:81) + VL L0 (SEQ ID NO:89) (antibody, V domains shown)
VH: QVQLVQSGAEVKKPGSSVKVSCKASGYTFTDYYMKWVRQAPGQGLEWMGEIYPNNGGITYNQKFKGRVTITADKSTSTAYMELSSLRSEDTAVYYCANGYEFVYWGQGTLVTVSS
VL: DIQMTQSPSSLSASVGDRVTITCSASQGISNYLNWYQQKPGKAPKLLIYYTSSLHSGVPSRFSGSGSGTDFTLTISSLQPEDFATYYCQQYSKLPWTFGQGTKLEIKR
modifications: Humansed antibody sequence
Human in house BCMA; Run 1, Human in house BCMA
  ka: 3.78E+05
  kd: 2.41E−03
Cyno in house BCMA [1]; Run 1, Cyno in house BCMA
  KD: No

B5: S307118G03 H5L0: humanised S307118G03, VH H5 (SEQ ID NO:87) + VL L0 (SEQ ID NO:89) (antibody, V domains shown)
VH: QVQLVQSGAEVKKPGSSVKVSCKASGYTFTDYYMKWVRQAPGQGLEWIGEIYPNNGGITYNQKFKGRATLTVDKSTSTAYMELSSLRSEDTAVYYCANGYEFDYWGQGTLVTVSS
VL: DIQMTQSPSSLSASVGDRVTITCSASQGISNYLNWYQQKPGKAPKLLIYYTSSLHSGVPSRFSGSGSGTDFTLTISSLQPEDFATYYCQQYSKLPWTFGQGTKLEIKR
modifications: Humansed antibody sequence
Human in house BCMA; Run 2, Human in house BCMA
  KD: No Analysable Binding
Cyno in house BCMA [1]; Run 2, Cyno in house BCMA
  KD: No
Human commercial BCMA [2]
  KD: V weak signal

B6: CA8 humanised J7M2: humanised CA8 anti-BCMA antibody, VH J7 (SEQ ID NO:25) + VL M2 (SEQ ID NO:35) (antibody, V domains shown)
VH: QVQLVQSGAEVKKPGSSVKVSCKASGYTFTNYWMHWVRQAPGQGLEWMGATYRGHSDTYYNQKFKGRVTITADKSTSTAYMELSSLRSEDTAVYYCARGAIYDGYDVLDNWGQGTLVTVSS
VL: DIQLTQSPSSLSASVGDRVTITCSASQDISNYLNWYQQKPGKAPELVIYYTSNLHSGVPSRFSGSGSGTDYTLTISSLQPEDFATYYCQQYRKLPWTFGQGTKLEIKR
modifications: Humansed antibody sequence
Human commercial BCMA [4]
  ka: 2.37E+06
  kd: 1.35E−04
Human in house BCMA
  off rate: beyond the sensitivity of the assay
Cyno in house BCMA [5]
  ka: 3.46E+05
  kd: 4.47E−04

B7: S307118G03 H5L1: humanised S307118G03, VH H5 (SEQ ID NO:87) + VL L1 (SEQ ID NO:91) (antibody, V domains shown)
VH: QVQLVQSGAEVKKPGSSVKVSCKASGYTFTDYYMKWVRQAPGQGLEWIGEIYPNNGGITYNQKFKGRATLTVDKSTSTAYMELSSLRSEDTAVYYCANGYEFDYWGQGTLVTVSS
VL: DIQMTQSPSSLSASVGDRVTITCSASQGISNYLNWYQQKPGKAPKLLIYYTSSLHSGVPSRFSGSGSGTDYTLTISSLQPEDFATYYCQQYSKLPWTFGQGTKLEIKR
modifications: Humansed antibody sequence
Human in house BCMA; Run 2, Human in house BCMA
  KD: No Analysable Binding
Cyno in house BCMA [1]; Run 2, Cyno in house BCMA
  KD: No
Human commercial BCMA [2]
  KD: V weak signal

B8: S307118G03 humanised H4L1: humanised S307118G03, VH H4 (SEQ ID NO:85) + VL L1 (SEQ ID NO:91) (antibody, V domains shown)
VH: QVQLVQSGAEVKKPGSSVKVSCKASGYTFTDYYMKWVRQAPGQGLEWMGEIYPNNGGITYNQKFKGRVTITADKSTSTAYMELSSLRSEDTAVYYCADGYEFVYWGQGTLVTVSS
VL: DIQMTQSPSSLSASVGDRVTITCSASQGISNYLNWYQQKPGKAPKLLIYYTSSLHSGVPSRFSGSGSGTDYTLTISSLQPEDFATYYCQQYSKLPWTFGQGTKLEIKR
modifications: Humansed antibody sequence
Human in house BCMA; Run 1, Human in house BCMA
  KD: No
Cyno in house BCMA [1]; Run 1, Cyno in house BCMA
  KD: No
